Values of other authors in PMC11313252.

Target: EGFR (Homo sapiens) (UniProt P00533)

Kd: 2 nM
Substance: EGF (from UniProt P01133)
